The values below come from patent publication US20240199755A1, “ANTAGONISTS AND AGONISTS OF THE TRANSFERRIN RECEPTOR-2 FOR USE IN THE TREATMENT OF DISEASES OF THE BONE” (Kymab Limited, priority 2018, published 2024).

For the assay, the target named is T1, Tfr2-ECD (Mus musculus, UniProt Q9JKX3).
T1 construct: full-length extracellular domain (ECD, aa 103-798) of murine Tfr2; His (N); MBP (N); c3 (protease site between MBP and ECD) (N); made in house; host or cells: Sf9 insect cells (baculovirus, pOCC211-Tfr2-ECD)
T1 sequence (Q9JKX3 103-798): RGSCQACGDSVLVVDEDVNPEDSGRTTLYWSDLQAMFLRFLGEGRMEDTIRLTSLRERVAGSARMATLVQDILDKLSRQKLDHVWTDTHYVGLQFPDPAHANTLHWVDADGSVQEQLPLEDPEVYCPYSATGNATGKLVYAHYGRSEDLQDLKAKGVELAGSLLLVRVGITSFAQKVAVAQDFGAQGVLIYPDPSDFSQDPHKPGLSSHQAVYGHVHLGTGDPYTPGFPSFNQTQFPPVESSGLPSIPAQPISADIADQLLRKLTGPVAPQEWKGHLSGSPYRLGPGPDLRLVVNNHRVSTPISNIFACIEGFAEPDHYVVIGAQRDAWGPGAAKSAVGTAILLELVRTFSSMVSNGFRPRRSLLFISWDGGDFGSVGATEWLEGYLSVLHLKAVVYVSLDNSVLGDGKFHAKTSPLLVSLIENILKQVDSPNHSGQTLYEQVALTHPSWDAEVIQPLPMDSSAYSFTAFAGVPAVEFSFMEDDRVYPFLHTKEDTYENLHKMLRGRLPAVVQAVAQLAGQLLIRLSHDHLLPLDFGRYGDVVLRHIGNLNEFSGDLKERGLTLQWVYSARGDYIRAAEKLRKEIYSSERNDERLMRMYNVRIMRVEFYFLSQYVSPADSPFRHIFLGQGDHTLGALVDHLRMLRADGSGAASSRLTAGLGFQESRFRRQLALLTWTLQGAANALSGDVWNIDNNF
Kind of assay: SPR binding of holo-Tf and BMP receptors to Tfr2-ECD immobilized on the sensor chip. On the set-up: species or system murine. The following applies: 200 nM BMP receptors; binding level normalized to molecular weight. As to the method: For this purpose, Tfr2-ECD is immobilized on a Series S Sensor Chip C1 (GE Healthcare), by means of coupling the amino groups at 25° C. The carboxyl groups on the chip surface are activated for 7 minutes using a mixture of 196 mM 1-ethyl-3-(3-dimethylaminopropyl) carbodiimide-hydrochloride and 50 mM n-hydroxysuccinimide at a flow rate of 10 μl/min. Subsequently, 5 μg/ml Tfr2-ECD, diluted with sodium acetate buffer (pH 4.5), is injected at a flow rate of 5 μl/min up to a relative occupancy of 200 RU. Non-reacted groups are inactivated by injecting 1 M thanolamine-HCl (pH 8.5) for 7 minutes at a flow rate of 10 μl/min. In order to prepare a reference surface, the same procedure is carried out but without Tfr2-ECD being injected.
The binding assays are carried out at 37° C. at a flow rate of 30 μl/min. Each analyte is diluted by a running buffer (HBS-P, pH 7.4 together with 50 nM FeCl3). […] The values of the binding level are read out, relative to the baseline, 10 s before the end of the injection and are corrected with respect to the molar mass. […] The binding parameters are determined using the Biacore™ T100 evaluation software 2.03. […]
For binding analysis, an injection of analyte for 240 s or 300 s over a Tfr2-ECD surface was followed by 1000 s dissociation. The values of the binding levels were recorded from referenced signals 10 s before the end of injection relative to baseline response. […]
In general terms: Surface plasmon resonance follows binding to a sensor surface in real time, without labels.

B1: BMPR-II: type II BMP receptor (R&D Systems) (protein, UniProt Q13873 27-1038, looked up)
Bone morphogenetic protein …: SQNQERLCAFKDPYQQDLGIGESRISHENGTILCSKGSTCYGLWEKSKGDINLVKQGCWSHIGDPQECHYEECVVTTTPPSIQNGTYRFCCCSTDLCNVNFTENFPPPDTTPLSPPHSFNRDETIIIALASVSVLAVLIVALCFGYRMLTGDRKQGLHSMNMMEAAASEPSLDLDNLKLLELIGRGRYGAVYKGSLDERPVAVKVFSFANRQNFINEKNIYRVPLMEHDNIARFIVGDERVTADGRMEYLLVMEYYPNGSLCKYLSLHTSDWVSSCRLAHSVTRGLAYLHTELPRGDHYKPAISHRDLNSRNVLVKNDGTCVISDFGLSMRLTGNRLVRPGEEDNAAISEVGTIRYMAPEVLEGAVNLRDCESALKQVDMYALGLIYWEIFMRCTDLFPGESVPEYQMAFQTEVGNHPTFEDMQVLVSREKQRPKFPEAWKENSLAVRSLKETIEDCWDQDAEARLTAQCAEERMAELMMIWERNKSVSPTVNPMSTAMQNERNLSHNRRVPKIGPYPDYSSSSYIEDSIHHTDSIVKNISSEHSMSSTPLTIGEKNRNSINYERQQAQARIPSPETSVTSLSTNTTTTNTTGLTPSTGMTTISEMPYPDETNLHTTNVAQSIGPTPVCLQLTEEDLETNKLDPKEVDKNLKESSDENLMEHSLKQFSGPDPLSSTSSSLLYPLIKLAVEATGQQDFTQTANGQACLIPDVLPTQIYPLPKQQNLPKRPTSLPLNTKNSTKEPRLKFGSKHKSNLKQVETGVAKMNTINAAEPHVVTVTMNGVAGRNHSVNSHAATTQYANGTVLSGQTTNIVTHRAQEMLQNQFIGEDTRLNINSSPDEHEPLLRREQQAGHDEGVLDRLVDRRERPLEGGRTNSNNNNSNPCSEQDVLAQGVPSTAADPGPSKPRRAQRPNSLDLSATNVLDGSSIQIGESTQDGKSGSGEKIKKRVKTPYSLKRWRPSTWVISTESLDCEVNNNGSNRAVHSKSSTAVYLAEGGTATTMVSKDIGMNCL
For B1, the “Binding response of BMPRs to Tfr2-ECD compared with BMPs” value is “weaker than BMPs”.
